Tests used:
[1] = target: ATP-binding cassette G1 (human (endogenous in THP-1)) (UniProt P45844)
[2] = target: ATP-binding cassette A1 (human (endogenous in THP-1)) (UniProt O95477)
Chain of UniProt O95477 (O95477 whole entry): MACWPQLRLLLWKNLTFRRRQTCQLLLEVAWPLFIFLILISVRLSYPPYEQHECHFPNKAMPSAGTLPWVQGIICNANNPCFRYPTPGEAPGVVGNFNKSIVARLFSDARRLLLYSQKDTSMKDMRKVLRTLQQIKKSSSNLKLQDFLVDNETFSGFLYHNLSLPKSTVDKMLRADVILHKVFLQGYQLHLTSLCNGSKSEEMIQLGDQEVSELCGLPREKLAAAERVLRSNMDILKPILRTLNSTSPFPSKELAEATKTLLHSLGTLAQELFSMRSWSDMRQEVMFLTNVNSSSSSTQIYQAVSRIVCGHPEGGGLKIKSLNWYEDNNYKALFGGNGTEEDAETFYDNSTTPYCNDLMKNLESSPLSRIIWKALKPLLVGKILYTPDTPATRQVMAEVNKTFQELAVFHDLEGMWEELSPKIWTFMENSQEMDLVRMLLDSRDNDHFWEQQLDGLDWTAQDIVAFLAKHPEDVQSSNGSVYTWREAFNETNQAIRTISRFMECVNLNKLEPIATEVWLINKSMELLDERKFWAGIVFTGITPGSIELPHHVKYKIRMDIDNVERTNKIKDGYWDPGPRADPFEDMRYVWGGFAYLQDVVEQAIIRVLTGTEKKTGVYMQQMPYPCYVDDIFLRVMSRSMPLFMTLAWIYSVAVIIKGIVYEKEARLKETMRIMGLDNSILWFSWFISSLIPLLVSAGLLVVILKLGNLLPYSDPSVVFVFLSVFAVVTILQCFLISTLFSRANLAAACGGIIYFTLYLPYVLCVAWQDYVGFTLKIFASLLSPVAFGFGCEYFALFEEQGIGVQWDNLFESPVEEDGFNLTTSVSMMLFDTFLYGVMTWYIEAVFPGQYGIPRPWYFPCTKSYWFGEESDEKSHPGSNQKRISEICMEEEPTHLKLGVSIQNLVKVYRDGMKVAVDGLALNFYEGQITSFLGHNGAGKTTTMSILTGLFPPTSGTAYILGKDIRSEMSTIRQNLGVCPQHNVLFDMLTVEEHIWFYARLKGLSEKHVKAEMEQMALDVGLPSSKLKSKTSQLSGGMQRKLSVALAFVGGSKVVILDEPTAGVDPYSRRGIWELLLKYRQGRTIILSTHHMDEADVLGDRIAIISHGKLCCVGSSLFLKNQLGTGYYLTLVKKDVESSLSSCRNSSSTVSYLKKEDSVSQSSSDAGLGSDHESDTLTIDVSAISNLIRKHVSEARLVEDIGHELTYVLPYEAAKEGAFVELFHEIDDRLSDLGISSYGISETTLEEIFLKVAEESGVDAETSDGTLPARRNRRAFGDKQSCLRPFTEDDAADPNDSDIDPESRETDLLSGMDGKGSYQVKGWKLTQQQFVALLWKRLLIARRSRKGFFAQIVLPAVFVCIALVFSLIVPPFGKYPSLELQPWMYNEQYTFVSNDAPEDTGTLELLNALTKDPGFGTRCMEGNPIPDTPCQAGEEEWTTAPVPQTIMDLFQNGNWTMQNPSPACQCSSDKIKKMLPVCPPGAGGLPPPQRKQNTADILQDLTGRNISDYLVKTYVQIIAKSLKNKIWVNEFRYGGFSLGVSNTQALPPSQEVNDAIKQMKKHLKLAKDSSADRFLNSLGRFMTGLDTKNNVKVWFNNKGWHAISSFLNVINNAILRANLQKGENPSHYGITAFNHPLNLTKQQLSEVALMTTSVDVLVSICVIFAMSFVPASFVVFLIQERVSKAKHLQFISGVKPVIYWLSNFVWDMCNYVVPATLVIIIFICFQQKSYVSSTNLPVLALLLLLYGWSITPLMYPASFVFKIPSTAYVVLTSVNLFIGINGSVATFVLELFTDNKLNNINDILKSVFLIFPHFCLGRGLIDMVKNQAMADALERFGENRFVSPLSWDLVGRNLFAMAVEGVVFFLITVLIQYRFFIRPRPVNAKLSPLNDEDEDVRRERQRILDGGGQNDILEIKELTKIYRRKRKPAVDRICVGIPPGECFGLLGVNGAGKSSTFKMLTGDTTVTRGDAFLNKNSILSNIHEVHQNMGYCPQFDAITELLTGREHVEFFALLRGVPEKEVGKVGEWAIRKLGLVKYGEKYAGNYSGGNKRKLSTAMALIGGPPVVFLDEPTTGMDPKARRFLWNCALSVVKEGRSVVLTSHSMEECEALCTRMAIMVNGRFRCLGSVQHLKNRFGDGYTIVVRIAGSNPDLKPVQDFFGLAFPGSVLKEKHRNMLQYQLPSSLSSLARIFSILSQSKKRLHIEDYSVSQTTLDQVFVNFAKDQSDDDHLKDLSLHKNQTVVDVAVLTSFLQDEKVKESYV

## human apoA-1 from human plasma (from UniProt P02647 19-267) (ligand)
[1]
  cholesterol efflux from [H^3]-cholesterol-loaded THP-1 macrophages to apoA-I (10 μg/ml) after heat-killed L. acidophilus K301; no effect in the absence of apoA-I: 2.3 fold
[2]
  cholesterol efflux from [H^3]-cholesterol-loaded THP-1 macrophages to apoA-I (10 μg/ml) after heat-killed L. acidophilus K301; no effect in the absence of apoA-I: 2.3 fold
